PMC9489729, “The AAA+ ATPase RavA and its binding partner ViaA modulate E. coli aminoglycoside sensitivity through interaction with the inner membrane” (Nature Communications, 2022)

Tests used:
[1] = biological target: T1, C-terminally His-tagged RavA (E. coli, UniProt P31473 1-498); experiment: BLI; biotinylated ViaA construct immobilised on streptavidin biosensors, ligand in solution, no nucleotide added; HBS kinetics buffer (25 mM HEPES pH 7.5, 300 mM NaCl, 10 mM MgCl2, 10 % glycerol, 0.1% BSA, 0.02% Tween-20), 293 K, Octet RED96; 1:1 model; conditions: both partners purified
T1 construct: RavA, MoxR AAA+ ATPase, E. coli K-12 MG1655; It cites earlier work for RavA being a hexamer with ADP or ATP and partly monomeric without nucleotide; also called apo-RavA; not shown: His tag, C-terminal, kept

[2] = biological target: T1, C-terminally His-tagged RavA; experiment: BLI; biotinylated ViaA construct immobilised on streptavidin biosensors, RavA in solution with 1 mM ADP (pre-incubated 10 min); HBS kinetics buffer, 293 K; 1:1 model; conditions: both partners purified
[3] = biological target: the molecule itself; experiment: SAXS; AviTag-ViaA-His at 3 mg/mL, 25 mM HEPES pH 7.5, 300 mM NaCl, 10 mM MgCl2, 10 % glycerol, 20 °C; MW by SAXSMoW and ScÅtter
[4] = biological target: the molecule itself; experiment: SEC-MALS; Superdex 200 increase 10/300 GL, 4 °C, 25 mM HEPES pH 7.5, 300 mM NaCl, 10 mM MgCl2, 10 % glycerol; AviTag-ViaA-His 80 µL at 3 mg/mL, His-NTV-AviTag 80 µL at 2 mg/mL
[5] = biological target: T1, C-terminally His-tagged RavA; experiment: BLI; Supplementary Fig. 1: biotinylated His-NTV-AviTag or ViaA immobilised on streptavidin biosensors, RavA or RavAΔLARA in solution; HBS kinetics buffer, 293 K; the methods say 1 mM ADP was added with RavA or RavAΔLARA; conditions: both partners purified

T1 sequence (P31473 whole entry): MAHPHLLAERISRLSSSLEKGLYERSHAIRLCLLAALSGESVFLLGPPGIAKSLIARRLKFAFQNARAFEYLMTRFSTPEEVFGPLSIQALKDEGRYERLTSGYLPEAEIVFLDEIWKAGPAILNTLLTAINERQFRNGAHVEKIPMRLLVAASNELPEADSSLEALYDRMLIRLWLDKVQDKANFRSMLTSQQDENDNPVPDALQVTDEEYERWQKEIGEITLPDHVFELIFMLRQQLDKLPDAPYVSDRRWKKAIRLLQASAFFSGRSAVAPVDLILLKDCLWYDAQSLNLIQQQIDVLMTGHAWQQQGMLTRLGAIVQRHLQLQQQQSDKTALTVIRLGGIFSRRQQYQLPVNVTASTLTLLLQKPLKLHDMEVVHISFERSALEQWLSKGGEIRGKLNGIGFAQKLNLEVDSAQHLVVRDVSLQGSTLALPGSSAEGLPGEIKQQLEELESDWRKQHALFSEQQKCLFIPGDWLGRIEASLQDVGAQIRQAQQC

B1: His-ViaA-AviTag (natural protein, E. coli, UniProt P0ADN0 1-483, looked up)
chain: MLTLDTLNVMLAVSEEGLIEEMIIALLASPQLAVFFEKFPRLKAAITDDVPRWREALRSRLKDARVPPELTEEVMCYQQSQLLSTPQFIVQLPQILDLLHRLNSPWAEQARQLVDANSTITSALHTLFLQRWRLSLIVQATTLNQQLLEEEREQLLSEVQERMTLSGQLEPILADNNTAAGRLWDMSAGQLKRGDYQLIVKYGEFLNEQPELKRLAEQLGRSREAKSIPRNDAQMETFRTMVREPATVPEQVDGLQQSDDILRLLPPELATLGITELEYEFYRRLVEKQLLTYRLHGESWREKVIERPVVHKDYDEQPRGPFIVCVDTSGSMGGFNEQCAKAFCLALMRIALAENRRCYIMLFSTEIVRYELSGPQGIEQAIRFLSQQFRGGTDLASCFRAIMERLQSREWFDADAVVISDFIAQRLPDDVTSKVKELQRVHQHRFHAVAMSAHGKPGIMRIFDHIWRFDTGMRSRLLRRWRR
modifications: biotinylated for the BLI binding studies (50 μM D-biotin added to the LB medium during expression)
notes: ViaA, E. coli, residues 1-483, cloned in the p11-Toronto1 vector; also called C-terminally AviTagged ViaA; source: E. coli BL21 (DE3), purified (NiNTA IMAC, desalting, SEC); not shown: His6, N-terminal, kept
- Kd [1]: 11 µM
- Kd [2]: ~2.2 µM

B2: AviTag-ViaA-His (natural protein, E. coli, UniProt P0ADN0 1-483, looked up)
chain: B1 chain
modifications: biotinylated for the BLI binding studies (50 μM D-biotin added to the LB medium during expression)
notes: ViaA, E. coli K-12 MG1655, VWA domain protein, residues 1-483 (NTV 1-319, CTV/VWA domain 320-483), cloned in pET22b; Dimer by SEC-MALLS and SAXS; Theoretical MW of the construct is 60.4 kDa; also called AVI-ViaA-HIS; N-terminally AviTagged ViaA; source: E. coli BL21 (DE3), purified (NiNTA IMAC, desalting, SEC); not shown: AviTag, N-terminal, kept; His tag, C-terminal, kept
- Kd [1]: 18.9 µM
- Kd [2]: ~2.2 µM
- stoichiometry N [3]: 2
- stoichiometry N [4]: ~2

B3: His-NTV-AviTag (domain or fragment, E. coli, UniProt P0ADN0 1-319, looked up)
chain: MLTLDTLNVMLAVSEEGLIEEMIIALLASPQLAVFFEKFPRLKAAITDDVPRWREALRSRLKDARVPPELTEEVMCYQQSQLLSTPQFIVQLPQILDLLHRLNSPWAEQARQLVDANSTITSALHTLFLQRWRLSLIVQATTLNQQLLEEEREQLLSEVQERMTLSGQLEPILADNNTAAGRLWDMSAGQLKRGDYQLIVKYGEFLNEQPELKRLAEQLGRSREAKSIPRNDAQMETFRTMVREPATVPEQVDGLQQSDDILRLLPPELATLGITELEYEFYRRLVEKQLLTYRLHGESWREKVIERPVVHKDYDEQPR
modifications: biotinylated for the BLI binding studies (50 μM D-biotin added to the LB medium during expression)
notes: ViaA, E. coli, N-terminal domain (NTV), residues 1-319; also called N-Terminal domain of ViaA; source: E. coli, expressed and purified as the ViaA constructs (NiNTA IMAC, desalting, SEC)
- binding result [5]: binds
